From patent US20230313190

Target: T1, Flag-Atxn1-82Q-HA, P54253
T1 chain: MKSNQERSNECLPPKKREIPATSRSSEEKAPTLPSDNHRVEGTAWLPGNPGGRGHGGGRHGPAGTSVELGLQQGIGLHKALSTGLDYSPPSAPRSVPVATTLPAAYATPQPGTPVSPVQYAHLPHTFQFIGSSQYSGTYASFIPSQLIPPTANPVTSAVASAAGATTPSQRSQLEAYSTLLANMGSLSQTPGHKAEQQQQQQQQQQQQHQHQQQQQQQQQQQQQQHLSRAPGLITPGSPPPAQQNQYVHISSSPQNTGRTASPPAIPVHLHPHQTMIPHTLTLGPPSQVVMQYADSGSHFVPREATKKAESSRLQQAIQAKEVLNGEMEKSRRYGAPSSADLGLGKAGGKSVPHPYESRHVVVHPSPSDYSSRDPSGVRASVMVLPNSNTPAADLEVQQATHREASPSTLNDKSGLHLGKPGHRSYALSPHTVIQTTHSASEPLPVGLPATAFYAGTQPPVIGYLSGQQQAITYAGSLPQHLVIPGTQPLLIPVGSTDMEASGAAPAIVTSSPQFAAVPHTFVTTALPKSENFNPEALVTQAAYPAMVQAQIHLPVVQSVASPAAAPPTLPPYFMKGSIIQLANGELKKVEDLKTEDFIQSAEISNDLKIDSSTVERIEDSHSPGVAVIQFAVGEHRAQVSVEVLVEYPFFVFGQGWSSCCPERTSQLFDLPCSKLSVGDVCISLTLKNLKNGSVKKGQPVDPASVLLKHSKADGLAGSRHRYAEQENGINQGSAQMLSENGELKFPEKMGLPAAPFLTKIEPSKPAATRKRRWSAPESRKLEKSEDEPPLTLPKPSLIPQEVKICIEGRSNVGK

B1: GST-rRNF4 (protein)
chain: MSTRNPQRKRRGGAVNSRQTQKRTRETTSTPEISLEAEPIELVETVGDEIVDLTCESLEPVVVDLTHNDSVVIVEERRRPRRNGRRLRQDHADSCVVSSDDEELSKDKDVYVTTHTPRSTKDEGTTGLRPSGTVSCPICMDGYSEIVQNGRLIVSTECGHVFCSQCLRDSLKNANTCPTCRKKINHKRYHPIYI
Question: For B1, which “in vitro ubiquitination assay” value is on record?
Answer: the unmodified Atxn1 82Q protein was not ubiquitinated
